Here are results for one substance from patent CN117858904A.

This experiment addresses 人SIRPα抗原 (human signal regulatory protein alpha, proprietary antigen) (human) (UniProt P78324). Kind of experiment: BLI (Octet Red384), SIRPa on AR2G sensor, 50 nM CD47 without antibody as analyte (positive control), 1200 s association.
UniProt P78324, sequence (P78324 31-370 limits assumed): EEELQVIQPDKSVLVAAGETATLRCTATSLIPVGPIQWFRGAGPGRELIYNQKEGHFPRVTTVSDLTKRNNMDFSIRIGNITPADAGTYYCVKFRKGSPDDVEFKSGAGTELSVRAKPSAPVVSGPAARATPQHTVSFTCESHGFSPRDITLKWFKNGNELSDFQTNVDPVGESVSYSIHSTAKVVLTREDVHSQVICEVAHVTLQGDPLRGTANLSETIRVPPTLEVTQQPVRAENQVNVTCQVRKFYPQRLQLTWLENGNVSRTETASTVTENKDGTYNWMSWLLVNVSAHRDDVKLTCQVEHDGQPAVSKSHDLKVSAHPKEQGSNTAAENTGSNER

For “专有CD47抗原 (proprietary human CD47 antigen of Examples 6 and 7) (from UniProt Q08722 19-139) (receptor)”, the 信号 (response) was 0.297 nm.
